Measured values taken from patent US20130052132A1, “Method for Producing Radioactively Labeled Polypeptide” (priority 2011, published 2013).
* marks the point of attachment. Benzoyl(3-I) = O=C(c1cccc(I)c1)*

Tests used:
[1] = parameters: species or system ddY mice; conditions: mouse
Method: After 5 minutes, 15 minutes, 30 minutes, 60 minutes, and 120 minutes from the administration, organs were dissected out of the mice (n=5). The weight and radioactivity of each organ were determined, and an accumulation amount (% dose/g) of the polypeptide of Example 1 was calculated from the radioactivity per unit weight. FIG. 1 is a graph showing, by way of example, how the accumulation of the polypeptide of Example 1 in each organ changed over time. Table 2 provides the ratio of pancreas/liver (accumulation amount in pancreas/accumulation amount in liver), the ratio of pancreas/kidney (accumulation amount in pancreas/accumulation amount in kidney), and the ratio of pancreas/blood (accumulation amount in pancreas/accumulation amount in blood) based on the accumulation amount of the polypeptide of Example 1 in each organ. The polypeptide of Example 2 (0.51 μCi) was administered to unanesthetized 6-week-old ddY mice (male, weight: 30 g) by intravenous injection (through the tail vein). After 5 minutes, 15 minutes, 30 minutes, 60 minutes, and 120 minutes from the administration, organs were dissected out of the mice (n=5). The weight and radioactivity of each organ were determined, and an accumulation amount (% dose/g) of the polypeptide of Example 2 was calculated from the radioactivity per unit weight. FIG. 3 is a graph showing, by way of example, how the accumulation of the polypeptide of Example 2 in each organ changed over time. Table 4 provides the ratio of pancreas/liver, the ratio of pancreas/kidney, and the ratio of pancreas/blood based on the accumulation amount of the polypeptide of Example 2 in each organ. A biodistribution experiment was performed by following the same procedure as in Example 1 except that the polypeptide of Example 4 (0.61 μCi) was used in place of the polypeptide of Example 1. FIG. 6 is a graph showing, by way of example, how the accumulation of the polypeptide of Example 4 in each organ changed over time. […]

[2] = target: T1, GLP-1R of the pancreatic β-cells (Mus musculus, UniProt O35659); experiment: Two-dimensional imaging analysis of pancreas sections (fluorescence and autoradiography); type: in vivo, MIP-GFP mouse; conditions: MIP-GFP mice
T1 construct: the pancreas was dissected out of the mouse; from tissue; host or cells: pancreas sections of MIP-GFP mice after intravenous dosing
T1 sequence (O35659 22-463): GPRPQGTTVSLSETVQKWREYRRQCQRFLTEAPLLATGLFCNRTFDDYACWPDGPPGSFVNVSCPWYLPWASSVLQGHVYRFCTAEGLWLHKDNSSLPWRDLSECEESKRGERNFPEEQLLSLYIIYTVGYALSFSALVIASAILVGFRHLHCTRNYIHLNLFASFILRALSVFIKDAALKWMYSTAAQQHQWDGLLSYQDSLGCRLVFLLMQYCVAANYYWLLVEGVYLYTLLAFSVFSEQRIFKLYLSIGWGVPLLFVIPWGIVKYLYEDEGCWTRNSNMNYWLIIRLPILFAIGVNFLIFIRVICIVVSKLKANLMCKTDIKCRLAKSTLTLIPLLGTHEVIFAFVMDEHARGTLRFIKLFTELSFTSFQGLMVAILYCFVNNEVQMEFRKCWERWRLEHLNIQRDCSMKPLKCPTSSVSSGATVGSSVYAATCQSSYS
Method: The polypeptide of Example 1 (5 μCi/100 μl) was administered to an unanesthetized MIP-GFP mouse (male, weight: 20 g) by intravenous injection, and after 30 minutes and 60 minutes from the administration, the pancreas was dissected out of the mouse (n=1). Sections were cut out of the dissected pancreas, and each section was placed on a slide glass, covered with a cover glass. The fluorescence and radioactivity (autoradiography) of each section were determined using an image analyzer (trade name: Typhoon 9410, manufactured by GE Health Care Inc.) (exposure time: 18 hours). The exemplary results are shown in lanes 1, 4 and 5 of FIG. 2. […] After 30 minutes from the preliminary administration, the polypeptide of Example 1 (5 μCi/100 μl) was administered to the mice by intravenous injection, and after 30 minutes and 60 minutes from the administration of the polypeptide, the pancreases were dissected out of the mice (n=2). Sections were cut out of the dissected pancreases, and the fluorescence and radioactivity of each section were determined in the same manner as above. […] FIG. 4 illustrates exemplary results of the imaging analysis of pancreas sections of MIP-GFP mice to which the polypeptide of Example 2 was administered. The images on the upper row show a fluorescence signal and those on the lower row show a radioactivity signal of the polypeptide represented by the formula (20). […]

[3] = target: T2, GLP-1R (glucagon-like peptide-1 receptor) of mouse pancreatic islet cells (mouse, UniProt O35659 22-463); experiment: displacement of [125I]Bolton-Hunter labeled exendin(9-39) from mouse pancreatic islet cells, filter separation, gamma counter
T2 construct: whole, on cells; also called GLP-1R of pancreatic beta-cells
T2 sequence: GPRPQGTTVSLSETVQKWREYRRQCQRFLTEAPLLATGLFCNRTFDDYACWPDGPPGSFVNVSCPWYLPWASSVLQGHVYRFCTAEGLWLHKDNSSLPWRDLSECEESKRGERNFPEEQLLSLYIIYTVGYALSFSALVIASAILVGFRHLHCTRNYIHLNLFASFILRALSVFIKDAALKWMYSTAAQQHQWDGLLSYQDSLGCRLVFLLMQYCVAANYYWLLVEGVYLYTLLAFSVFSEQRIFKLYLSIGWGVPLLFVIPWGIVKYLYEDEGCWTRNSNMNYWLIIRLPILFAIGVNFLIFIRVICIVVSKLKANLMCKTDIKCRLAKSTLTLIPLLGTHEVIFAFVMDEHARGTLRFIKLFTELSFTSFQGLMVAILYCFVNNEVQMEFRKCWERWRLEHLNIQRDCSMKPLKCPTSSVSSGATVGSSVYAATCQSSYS

Molecule | deiodization metabolism in vivo [1] | accumulation in the pancreas ([1]; in vivo) | ratio of pancreas/kidney in the accumulation amount ([1]; in vivo) | localization of the radioactivity signal in pancreas sections ([2]; 30 and 60 minutes after intravenous injection, compared with GFP signal) | radioactivity signal in pancreas sections after blocking the receptors ([2]; preliminary administration of cold probe non-labeled exendin(9-39) 50 μg 30 minutes before) | IC50 [3] [nM]
Example 1 (DLSKQMEEEAVRLFIEWLRNGGPSSGAPPPS; A polypeptide produced in Production Example 1) | not subjected to deiodization metabolism in vivo | exceeding 15 % dose/g | ≥ 1 | substantially consistent with that of the GFP signal | hardly detected | –
Ac-DLSK(Benzoyl(3-I))QMEEEAVRLFIEWLRNGGPSSGAPPPS-NH2 (SMILES CC[C@H](C)[C@H](NC(=O)[C@H](Cc1ccccc1)NC(=O)[C@H](CC(C)C)NC(=O)[C@H](CCCNC(=N)N)NC(=O)[C@@H](NC(=O)[C@H](C)NC(=O)[C@H](CCC(=O)O)NC(=O)[C@H](CCC(=O)O)NC(=O)[C@H](CCC(=O)O)NC(=O)[C@H](CCSC)NC(=O)[C@H](CCC(N)=O)NC(=O)[C@H](CCCCNC(=O)c1cccc(I)c1)NC(=O)[C@H](CO)NC(=O)[C@H](CC(C)C)NC(=O)[C@H](CC(=O)O)NC(C)=O)C(C)C)C(=O)N[C@@H](CCC(=O)O)C(=O)N[C@@H](Cc1c[nH]c2ccccc12)C(=O)N[C@@H](CC(C)C)C(=O)N[C@@H](CCCNC(=N)N)C(=O)N[C@@H](CC(N)=O)C(=O)NCC(=O)NCC(=O)N1CCC[C@H]1C(=O)N[C@@H](CO)C(=O)N[C@@H](CO)C(=O)NCC(=O)N[C@@H](C)C(=O)N1CCC[C@H]1C(=O)N1CCC[C@H]1C(=O)N1CCC[C@H]1C(=O)N[C@@H](CO)C(N)=O, Non-radioactive exendin(9-39) derivative with Arg in place of Lys at position 19; Formula (11) itself is a drawing; also called cold probe) [polypeptide represented by the formula (11)] | – | – | – | – | – | 32.1
